The subject of data set [1] is MiaPaca-2 human pancreatic tumor. The experiment in a line: In vivo anti-tumor study, MiaPaca-2 xenograft in nude mice. The conditions noted are these: MiaPaca-2 tumor-bearing nude mice, i.v.; conjugate 4 10 mg/kg qd (5 + 5); CPT-11 40 mg/kg twice/week for 2 weeks.
Text: The number of viable cells was counted with a hemocytometer with trypan blue staining under a light microscope on the day of tumor cell inoculation. Cells were suspended with phenol red free RPMI-1640 and Matrigel in a 1:1 ratio. MiaPaca-2 suspension cells (1 × 10^6 cells) were implanted subcutaneously into the left flank of the nude mice using a 1-ml syringe (needle 24G × 1 in., 0.55 × 25 mm; TERUMO). A digital caliper was used to measure tumor sizes and dimensions as the tumor volume in mm^3 was calculated with the formula: Volume = (length × width^2)/2. Tumor-bearing mice were randomized (n = 8 per group) and mean tumor volume was approximately 170 mm^3. […] Body weight and tumor size were measured twice weekly.
In data set [2] the test system is MiaPaca-2 pancreatic cancer cells. Conditions: MiaPaca-2, MTS, 72 h.
Experimental: MiaPaCa-2 cells, obtained from the Bioresource Collection and Research Center, Hsinchu, Taiwan, and the Detroit 551 cells were cultured in Dulbecco’s modified Eagle’s medium (DMEM). All cells were grown in a humidified CO2 incubator at 37°C. Cell viability was determined by the MTS assay. In brief, cells were cultured (2,500–3,000 cells/well) in flat bottomed 96-well plates for 24 h. Serial-diluted conjugates were added to the cell media and incubated for 72 h. Culture medium was removed after 72 h followed by the addition of 100 μl of MTS and PMS mixture solution. In a humidified incubator at 37°C with 5% CO2, cells were then incubated for another 1.5 h for viable cells to convert the tetrazolium salt into formazan. The conversion to formazan was monitored at the 490-nm absorbance by a BioTek PowerWave-X Absorbance Microplate Reader. In this MTS assay, the recorded data were normalized to DMSO-treated and background controls. Using GraphPad Prism version 4 software, the IC50 value was the amount of each conjugate that caused a 50% reduction in cell viability in comparison to DMSO-treated controls.
Data set [3] can be described thus: In vivo pharmacokinetic study, i.v., ICR mice. Conditions: male ICR mice, i.v. 5 mg/kg; for AUCSN-38: SN-38 released from the dosed conjugate; for AUCSN-38 / AUC: 0–24 h; for AUC / clearance / Vd: mouse, in vivo, iv; for AUC: intact conjugate, read-out: AUCconjugate; for clearance / Vd: n = 3; for Vd: read-out: Vss. On the set-up: species or system mouse. As to the method: Six-week-old ICR mice, purchased from Biolasco (Taiwan), were divided into groups of three and 100 µl of dosing solution was given intravenously. Through cardiac puncture, blood sample was collected from each sacrificed animal at time points at 0.003, 0.083, 0.25, 0.5, 1, 2, 4, 6, 8, and 24 h and stored on ice (0–4°C). Plasma was separated from the blood by centrifugation at 3,000 rpm for 15 min at 4°C in a Beckman Model Allegra 6R centrifuge. Analysis of the plasma samples were done by using liquid chromatography with tandem mass spectrometry (LC/MS/MS). A gradient system was used for the separation of analyte and IS. Ammonium acetate aqueous solution (10 mM) containing 0.1% formic acid was used as mobile phase A, while mobile phase B was acetonitrile. The gradient profile was as follows: 0.0–1.1 min, 50%B; 1.2–3.7 min, 55%B–90%B; 3.8–5.0 min, 90%B–50%B at the flow rate of 1.5 ml/min. The autosampler was programmed to inject 15 µl of sample every 5 min.
Next, to address the in vivo longevities and stabilities of U-4CR and/or “clicked” conjugates, in vivo systemic pharmacokinetic studies of conjugates 4–8 were carried out in the ICR mice. One single intravenous dose of 5 mg/kg of each conjugate was given to the mice. Plasma concentrations between the intact conjugate and the active payload (released SN-38 from the conjugate) in the circulation were measured and the pharmacokinetic parameters including clearance (CL), steady-state volume of distribution (Vss), and area under the plasma concentration curve (AUC0–24h) were determined (Table 2). Since SN-38 was the cytotoxic payload, the AUC ratio between the intact conjugate and SN-38 reflected the plasma stability, as these conjugates should be capable of uncaging the payload with higher protease activities in the tumor microenvironment. We envisioned that U-4CR could be a valuable synthetic strategy that unifies several advantageous features for bioactive SMDC in vivo. In addition to installing hydrophilic moiety to increase solubility and functional groups that modulate steady-state volume of distribution of the conjugate in vivo, a facile reactive handle for payload conjugation was also included. Indeed, we observed structure–property trends among the U-4CR-derived conjugates 5–8. Since these conjugates harnessed the same exo-BCN clicked SN-38 portion, the U-4CR products between the Zn-DPA targeting ligand and other components might contribute factors that could affect their in vivo stabilities (Table 2).

In another data set the test system is ICR mice. The data set is described as follows: In vivo maximum tolerated dose determination (acute toxicity). Details: species or system mouse. Conditions: 5-day repeat dose, 1-week recovery monitoring. Here is the method:
The acute toxicity studies were determined in ICR male mice. In general, the studies were conducted using the dose of 10-50 mpk for dosing 5 consecutive days and the survival of the animals and their body weight were monitored for 14 days after first dosing.
However, acute toxicity is another important parameter to be monitored in the development of SMDC. […] Not limited by the components described within, the optimization of in vivo pharmacokinetic profiles of alternative ZnDPA-based SMDC, we anticipate that U-4CR with combinations of different components can lead to the construction of improved properties, such as decrease in the clearance rate and steady-state volume of distribution (Vss). Moreover, we envision employment of an imaging agent as one of the components can also furnish functional theranostic if desired.

Consider `CCc1c2c(nc3ccc(OC(=O)N4CCC(N5CCCCC5)CC4)cc13)-c1cc3c(c(=O)n1C2)COC(=O)[C@]3(O)CC` [CPT-11, irinotecan], for which the tumor shrinkage result in data set [1] was “not observed”. The “decrease in potency towards MiaPaca-2 (IC50 ratio) compared to SN-38” value in data set [2] is roughly 350 fold.

Consider `CCc1c2c(nc3ccc(OC(=O)c4ccc(CN(CCOCCOCCn5nnc6c5CC[C@H]5[C@@H](CC6)[C@@H]5COC(=O)N5CCC(C(=O)N(CCCCOc6cc(CN(Cc7ccccn7)Cc7ccccn7)cc(CN(Cc7ccccn7)Cc7ccccn7)c6)C6(C(=O)NC(C)(C)C)CCOCC6)CC5)C(=O)C5(c6ccc(Cl)cc6)CCCCC5)cc4)cc13)-c1cc3c(c(=O)n1C2)COC(=O)[C@]3(O)CC` [conjugate 6], for which, in data set [3], the AUCSN-38 amounted to 927 ng·h/mL, the AUC was found to be 6460 ng·h/mL, the clearance (usually the rate of elimination divided by the concentration) is 13.5 mL/min/kg and the Vd was found to be 4.1 L/kg.

`CCOP(=O)(CNC(=O)C1(N(CCCCOc2cc(CN(Cc3ccccn3)Cc3ccccn3)cc(CN(Cc3ccccn3)Cc3ccccn3)c2)C(=O)c2ccc(-c3ccc(O)cc3)cc2)CCN(C(=O)OC[C@H]2[C@@H]3CCc4nnn(CCOCCOCCN(Cc5ccc(C(=O)Oc6ccc7nc8c(c(CC)c7c6)Cn6c-8cc7c(c6=O)COC(=O)[C@]7(O)CC)cc5)C(=O)C5(c6ccc(Cl)cc6)CCCCC5)c4CC[C@@H]32)CC1)OCC` [conjugate 8]: in data set [3], the AUCSN-38 is reported as 1,549 ng/ml*h, the “difference in the AUC for the intact conjugate versus the released SN-38 within 24 h” value turned out to be 40 fold, the AUC came out at 62000 ng·h/mL and the clearance is 1.3 mL/min/kg. The Vd in data set [3] was 0.1 L/kg. Besides, in the data set with ICR mice, the “maximum tolerated dose (MTD)” value came to 30 mpk.

`C/C=C/C(=O)N(CCCCOc1cc(CN(Cc2ccccn2)Cc2ccccn2)cc(CN(Cc2ccccn2)Cc2ccccn2)c1)C1(C(=O)NC(C)(C)C)CCN(C(=O)OC[C@H]2[C@@H]3CCc4nnn(CCOCCOCCN(Cc5ccc(C(=O)Oc6ccc7nc8c(c(CC)c7c6)Cn6c-8cc7c(c6=O)COC(=O)[C@]7(O)CC)cc5)C(=O)C5(c6ccc(Cl)cc6)CCCCC5)c4CC[C@@H]32)CC1` [conjugate 7]: in data set [3], the AUCSN-38 is listed as 1,309 ng/ml*h, the AUC turned out to be 20700 ng·h/mL, the clearance came to 8.3 mL/min/kg and the Vd worked out at 3.6 L/kg.

With `CCc1c2c(nc3ccc(OC(=O)c4ccc(CN(CCOCCOCCn5nnc6c5CC[C@H]5[C@@H](CC6)[C@@H]5COC(=O)N(C)CCCC(=O)N(CCCCOc5cc(CN(Cc6ccccn6)Cc6ccccn6)cc(CN(Cc6ccccn6)Cc6ccccn6)c5)C5(C(=O)NC(C)(C)C)CCOCC5)C(=O)C5(c6ccc(Cl)cc6)CCCCC5)cc4)cc13)-c1cc3c(c(=O)n1C2)COC(=O)[C@]3(O)CC` [conjugate 5], in data set [3], the AUCSN-38 is 696 ng·h/mL, the AUC stood at 1590 ng·h/mL, the clearance was determined as 50.2 mL/min/kg and the Vd was determined as 18.5 L/kg.

For the origin of these results see PMC8886374, “Click Chemistry and Multicomponent Reaction for Linker Diversification of Zinc Dipicolylamine-Based Drug Conjugates” (Frontiers in Chemistry, 2022).
